Experimental data taken from the RNAGym collection of RNA variant scans (doi:10.1093/molbev/msab373).

B1: Azoarcus group I ribozyme (parent)
chain: GUGCCUUGCGCCGGGAAACCACGCAAGGGAUGGUGUCAAAUUCGGCGAAACCUAAGCGCCCGCCCGGGCGUAUGGCAACGCCGAGCCAAGCUUCGGCGCCUGCGCCGAUGAAGGUGUAGAGACUAGACGGCACCCACCUAAGGCAAACGCUAUGGUGAAGGCAUAGUCCAGGGAGUGGCGAAAGUCACACAAACCGG

Variants of: B1
Test: reverse-splicing fitness (ratio to wild type); higher = more active; in vitro selection; Mg2+ level not given
Method in brief: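 An in vitro group I ribozyme library with randomized positions was T7-transcribed and gel-purified. In triplicate, 10 pmol RNA in EPPS pH 7.5 was reacted with 50 pmoles of a 30-nt RNA substrate for 1 h at 37 °C across several added MgCl2 levels (1–48 mM), then stopped with EDTA. Products were reverse transcribed from a substrate-complementary primer, PCR-amplified and sequenced (HiSeq 4000). Fitness is a variant's read proportion after selection over that before, normalised to wild type.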
With C82U A111U A120G C169U U176A the reverse-splicing fitness was 0.0215. For C82U A111U A120G C169U U176G, the reverse-splicing fitness was 0.00594. Variant C82U A111U A120G C169U U176C has a reverse-splicing fitness of 0.0161. For C82U A111U A120U A145C C150U C169U U176C, the reverse-splicing fitness was 0.00256. C82U A111U A120U A145C C150U C169U U176G gave a reverse-splicing fitness of 0.00212. For C82U A111U A120U A145C C150U C169U U176A, the reverse-splicing fitness was 0.00211. In the case of C82U A111U A120U A145C C150A U176G, the reverse-splicing fitness is reported as 0.00245. C82U A111U A120U A145C C150A U176A gave a reverse-splicing fitness of 0.00354. Work on C82U A111U A120U A145C C150A U176C yielded a reverse-splicing fitness of 0.00387. With C82U A111U A120U A145C C150A C169A the reverse-splicing fitness was 0.00214. C82U A111U A120U A145C C150A C169G gave a reverse-splicing fitness of 0.00215. C82U A111U A120U A145C C150A C169U gave a reverse-splicing fitness of 0.00254. With C82U A111U A120G A145G C150G C169G U176G the reverse-splicing fitness was 0.00498. C82U A111U A120G A145G C150G C169G U176C showed a reverse-splicing fitness of 0.0107. C82U A111U A120G A145G C150G C169G U176A gave a reverse-splicing fitness of 0.00842. Variant C82U A111U A120G C150G C169U U176C has a reverse-splicing fitness of 0.0119. C82U A111U A120G C150G C169U U176G showed a reverse-splicing fitness of 0.00556. C82U A111U A120G C150G C169U U176A showed a reverse-splicing fitness of 0.0122. Work on C82U A111U A120U A145C C169A U176A yielded a reverse-splicing fitness of 0.00226. C82U A111U A120U A145C C169A U176G showed a reverse-splicing fitness of 0.00173. For C82U A111U A120U A145C C169A U176C, the reverse-splicing fitness was 0.00199. C82U A111U A120U gave a reverse-splicing fitness of 0.0242. C82U A111U A120G A145C C169A gave a reverse-splicing fitness of 0.007. With C82U A111U A120G A145C C169G the reverse-splicing fitness was 0.00962. C82U A111U A120G A145C C169U showed a reverse-splicing fitness of 0.00777. With C82U A111U A120G A145U U176A the reverse-splicing fitness was 0.012. Work on C82U A111U A120G A145U U176G yielded a reverse-splicing fitness of 0.0045. Work on C82U A111U A120G A145U U176C yielded a reverse-splicing fitness of 0.0131. C82U A111U A120G C150A C169A gave a reverse-splicing fitness of 0.0103. C82U A111U A120G C150A C169G gave a reverse-splicing fitness of 0.0098. Variant C82U A111U A120G C150A C169U has a reverse-splicing fitness of 0.00823. For C82U A111U A120G A145U C150A C169A, the reverse-splicing fitness was 0.00884. Variant C82U A111U A120G A145U C150A C169G has a reverse-splicing fitness of 0.00728. In the case of C82U A111U A120G A145U C150A C169U, the reverse-splicing fitness is reported as 0.0062. In the case of C82U A111U A120U A145C C150U C169A, the reverse-splicing fitness is reported as 0.0022. For C82U A111U A120U A145C C150U C169U, the reverse-splicing fitness was 0.00288. Variant C82U A111U A120U A145C C150U C169G has a reverse-splicing fitness of 0.00276. C82U A111U A120U A145G C150G C169G showed a reverse-splicing fitness of 0.00647. C82U A111U A120U A145G C150G C169A gave a reverse-splicing fitness of 0.00819. C82U A111U A120U A145G C150G C169A U176C showed a reverse-splicing fitness of 0.00711. Work on C82U A111U A120U A145G C150G C169A U176A yielded a reverse-splicing fitness of 0.0098. In the case of C82U A111U A120U A145G C150G C169A U176G, the reverse-splicing fitness is reported as 0.00474. Variant C82U A111U A120G A145U C150G C169A U176C has a reverse-splicing fitness of 0.00812. Variant C82U A111U A120G A145U C150G C169A U176G has a reverse-splicing fitness of 0.00439. Work on C82U A111U A120G A145U C150G C169A U176A yielded a reverse-splicing fitness of 0.00889. C82U A111U A120U A145C C150A C169U U176C gave a reverse-splicing fitness of 0.00269. Variant C82U A111U A120U A145C C150A C169U U176G has a reverse-splicing fitness of 0.00213. With C82U A111U A120U A145C C150A C169U U176A the reverse-splicing fitness was 0.0025. With C82U A111U A120G U176G the reverse-splicing fitness was 0.00474. C82U A111U A120G U176C showed a reverse-splicing fitness of 0.0165. With C82U A111U A120G U176A the reverse-splicing fitness was 0.0123. Work on C82U A111U A120G A145G C150A C169G U176G yielded a reverse-splicing fitness of 0.00481. Variant C82U A111U A120G A145G C150A C169G U176C has a reverse-splicing fitness of 0.0253. In the case of C82U A111U A120G A145G C150A C169G U176A, the reverse-splicing fitness is reported as 0.0152. Variant C82U A111U A120U A145G C150G C169G U176A has a reverse-splicing fitness of 0.00749. In the case of C82U A111U A120U A145G C150G C169G U176G, the reverse-splicing fitness is reported as 0.00365. Variant C82U A111U A120U A145G C150G C169G U176C has a reverse-splicing fitness of 0.00477. C82U A111U A120G A145G U176G gave a reverse-splicing fitness of 0.00453. For C82U A111U A120G A145G U176C, the reverse-splicing fitness was 0.0197. In the case of C82U A111U A120G A145G U176A, the reverse-splicing fitness is reported as 0.0127. Work on C82U A111U A120G A145G C150G U176A yielded a reverse-splicing fitness of 0.0062. Work on C82U A111U A120G A145G C150G U176C yielded a reverse-splicing fitness of 0.00919. C82U A111U A120G A145G C150G U176G gave a reverse-splicing fitness of 0.00543. In the case of C82U A111U A120G A145U C150G C169G U176A, the reverse-splicing fitness is reported as 0.00623. C82U A111U A120G A145U C150G C169G U176C showed a reverse-splicing fitness of 0.00435. C82U A111U A120G A145U C150G C169G U176G gave a reverse-splicing fitness of 0.00385. In the case of C82U A111U A120G A145U C150U C169U U176C, the reverse-splicing fitness is reported as 0.0139. Work on C82U A111U A120G A145U C150U C169U U176G yielded a reverse-splicing fitness of 0.00432. With C82U A111U A120G A145U C150U C169U U176A the reverse-splicing fitness was 0.0203. Variant C82U A111U A120G A145U C150A C169G U176A has a reverse-splicing fitness of 0.0132. Work on C82U A111U A120G A145U C150A C169G U176C yielded a reverse-splicing fitness of 0.0136. Work on C82U A111U A120G A145U C150A C169G U176G yielded a reverse-splicing fitness of 0.0044. Work on C82U A111U A120G A145G C150G C169G yielded a reverse-splicing fitness of 0.00719. For C82U A111U A120G A145G C150G C169U, the reverse-splicing fitness was 0.0089. C82U A111U A120G A145G C150G C169A showed a reverse-splicing fitness of 0.00888. In the case of C82U A111U A120G A145C C150G C169U U176C, the reverse-splicing fitness is reported as 0.0113. C82U A111U A120G A145C C150G C169U U176A gave a reverse-splicing fitness of 0.0142. C82U A111U A120G A145C C150G C169U U176G gave a reverse-splicing fitness of 0.00495. Work on C82U A111U A120G A145G C150U C169G yielded a reverse-splicing fitness of 0.00964. Work on C82U A111U A120G A145G C150U C169U yielded a reverse-splicing fitness of 0.0104. With C82U A111U A120G A145G C150U C169A the reverse-splicing fitness was 0.00995. In the case of C82U A111U A120G A145U C150A C169U U176C, the reverse-splicing fitness is reported as 0.0141. Work on C82U A111U A120G A145U C150A C169U U176A yielded a reverse-splicing fitness of 0.0203. Variant C82U A111U A120G A145U C150A C169U U176G has a reverse-splicing fitness of 0.00425.
